Source: patent publication US20250043005A1 (GENEQUANTUM HEALTHCARE SUZHOU, published 2025)

B1: Ab0033 (antibody, human IgG1, kappa, N297A, V domains shown)
VH: QVQLQESGPGLVKPSETLSLTCTVSGYSITSGYNWHWIRQFPGNGLEWMGYIHHSSITNYNPSLKSRITISRDTSKNQFSLKLSSVTAADTATYYCAREGYDYDWFAYWGQGTLVTVSS
VL: DIVLTQSPDFQSVTPKEKVTITCRASQSISNNLHWYQQKPDESPKLLIKYASQSISGIPSRFSGSGSGTDFTLTINSVEAEDFAMYFCQQSKSWPFTFGQGTRLEIKR
notes: Signal peptides are not part of the purified protein; also called antibody moiety Ab0033; derived from Ab0002 (3F2)
B2: Recombinant hIL21R protein (receptor)
chain: not shown
notes: also called human IL21 receptor; Hu-IL21R

Key:
[1] = biological target: T1, Recombinant hPD-L1 protein (Acrobiosystems, PD1-H5253) (human, UniProt Q9NZQ7 19-238); test: ELISA, recombinant hPD-L1 coated at 0.5 ug/mL, detection with anti-human-IgG (H+L)-HRP, OD450
T1 construct: also called human PD-L1
T1 sequence (Q9NZQ7 19-238 limits assumed): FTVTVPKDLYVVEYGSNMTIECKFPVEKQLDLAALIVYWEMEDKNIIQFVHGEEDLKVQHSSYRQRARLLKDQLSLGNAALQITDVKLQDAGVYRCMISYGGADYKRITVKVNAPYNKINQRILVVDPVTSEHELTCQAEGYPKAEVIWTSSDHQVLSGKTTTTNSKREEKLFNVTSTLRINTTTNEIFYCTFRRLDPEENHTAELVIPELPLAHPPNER
Description: Recombinant hPD-L1 was diluted in coating buffer (1×PBS) to 0.5 μg/mL and coated to an ELISA plate at 4° C. overnight. The plate was blocked with 5% slim milk powder in coating buffer at 37° C. for 1 h. […] Finally, 1:5000 diluted anti-human-IgG (H+L)-HRP was added. After an incubation at 37° C. for 1 h, TMB substrate was added for color development. The data was collected using a microplate reader.

[2] = biological target: T2, His-tagged human IL21R (hIL21R-His) (human, UniProt Q9HBE5 20-232, limits assumed); test: SPR (Biacore T200), Ab0033 captured on Protein A chip, hIL21R-His as analyte
T2 construct: not shown: His tag
Description: (§1) The Biacore T200 biosensor is equipped with Sensor Chip Protein A. The proteins (diluted to 1 μg/mL) to be tested were injected at 10 μL/min into the Biacore T200 biosensor for 50 sec, in order to reach the required protein density (about 300 RU). Then His-tagged human IL21R (hIL21R-His, 200 nM) or human PD-L1 (hPD-L1-His, 100 nM) were injected at 30 μL/min into the system for 180 sec. The dissociation was monitored for 600 sec. After each cycle, glycine buffer pH 1.7 (30 μL/min, 30 sec) was used to regenerate the chip.

[3] = biological target: T3, His-tagged human PD-L1 (hPD-L1-His) (human, UniProt Q9NZQ7 19-238, limits assumed); test: SPR (Biacore T200), Ab0033 captured on Protein A chip, hPD-L1-His 100 nM as analyte, 1:1 Langmuir fit
T3 construct: not shown: His tag
T3 sequence (Q9NZQ7 19-238 limits assumed): as above
Description: as §1
Data were processed with Biacore T200 evaluation software 3.0. The binding kinetics were analyzed by globally fitting the data with the 1:1 Langmuir binding model to obtain the association rate (kₒₙ) and dissociation rate (koff). The affinity (KD) was calculated using the formula: KD=koff/kₒₙ.

[4] = biological target: T1, Recombinant hPD-L1 protein …; test: ELISA, recombinant hPD-L1 (Acrobiosystems PD1-H5253) coated at 0.5 ug/mL, detection with anti-human-IgG (H+L)-HRP, OD450
Description: The binding activities of the fusion proteins to human PD-L1 (hPD-L1) were determined using ELISA. […] The plate was blocked with 5% slim milk powder in the coating buffer at 37° C. for 1 h. […] Finally, 1:5000 diluted anti-human-IgG (H+L)-HRP was added. After an incubation at 37° C. for 1 h, TMB substrate was added for color development. The data was collected using a microplate reader.

[5] = biological target: B2; test: ELISA, recombinant hIL21R coated at 0.5 ug/mL, detection with anti-human-IgG (H+L)-HRP, OD450
Description: (§2) The binding activities of the fusion proteins to human IL21 receptor (hIL21R or Hu-IL21R) were determined using ELISA. Recombinant hIL21R protein were diluted using coating buffer (1×PBS) to 0.5 μg/mL and coated to an ELISA plate at 4° C. overnight. The plate was blocked with 5% slim milk powder in coating buffer at 37° C. for 1 h. […] Finally, 1:5000 diluted anti-human-IgG (H+L)-HRP was added. After an incubation at 37° C. for 1 h, TMB substrate was added for color development. The data was collected using a microplate reader.

[6] = biological target: T4, LC0030-1 (Homo sapiens (Human), UniProt P0DOX7 1-214; P0DOX5 2-449 = IgG part); test: as above
T4 construct: Antibody-cytokine fusion (immunocytokine) made by Sortase A conjugation; also called fusion protein prepared from Ab0030 containing one hIL21 (isoform 1); DAR1
Description: as §2

Binder	EC50 (read off the curve) [1] [nM]	binding result [2]	Kd [3] [nM]	koff [3] [s⁻¹]	kon [3] [M⁻¹ s⁻¹]	EC50 (read off the curve) [4] [nM]	binding result [5]	binding result [6]
B1	~0.1	no binding (tested: 200 nM)	0.608	0.0012	1.98e+06	~0.08	no binding (tested: about 40 nM)	–
B2	–	–	–	–	–	–	–	binds
